Laboratory results reported in patent publication US20110144007A1 (IPSEN PHARMA S A S, published 2011).
Substitutions are numbered along the chain they refer to. Non-standard residues stand in square brackets, D forms with d. No end group written: not given here. *: point of attachment. Psu = N-propylsuccinimide on Cys S (Cys alkylated with N-propylmaleimide), CCCN1C(=O)CC(*)C1=O; Myristoyl = CCCCCCCCCCCCCC(=O)*; Ac6c = NC1(C(=O)O)CCCCC1; Nle = CCCC[C@H](N)C(=O)O; Orn = NCCC[C@H](N)C(=O)O; Ac5c = NC1(C(=O)O)CCCC1; Aib = CC(C)(N)C(=O)O

Target: T1, human recombinant GIP receptor (human, UniProt P48546 22-466)
T1 construct: whole, on cells; Assayed as washed membrane preparations of CHO-K1 clonal cells expressing the receptor; also called hGIP receptor
T1 sequence (looked up): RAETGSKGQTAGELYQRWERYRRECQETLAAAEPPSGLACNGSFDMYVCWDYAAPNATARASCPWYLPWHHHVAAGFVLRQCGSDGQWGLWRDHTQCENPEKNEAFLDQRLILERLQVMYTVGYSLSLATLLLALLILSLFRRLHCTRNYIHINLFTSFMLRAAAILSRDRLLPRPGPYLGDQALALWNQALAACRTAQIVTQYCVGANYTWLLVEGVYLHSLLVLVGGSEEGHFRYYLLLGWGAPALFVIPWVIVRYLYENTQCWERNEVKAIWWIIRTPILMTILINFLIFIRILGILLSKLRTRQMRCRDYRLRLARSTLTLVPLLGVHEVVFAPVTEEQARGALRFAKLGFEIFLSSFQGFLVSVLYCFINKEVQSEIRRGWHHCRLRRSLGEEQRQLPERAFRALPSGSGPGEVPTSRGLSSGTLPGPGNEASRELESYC
Assay: displacement of [125I]GIP from membranes of CHO-K1 cells expressing human recombinant GIP receptor

B1: (Aib^13, Nle^14, Phe^43)hGIP(1-43)-OH (peptide)
peptide: YAEGTFISDYSI[Aib][Nle]DKIHQQDFVNWLLAQKGKKNDWKHNITQF-OH
notes: Synthetic analogue of human GIP with an added Phe at position 43
Ki: 3.15 nM

B2: (A5c^11, 14)hGIP(1-30)-NH2 (peptide)
peptide: YAEGTFISDYXIAXDKIHQQDFVNWLLAQK
modifications: A5c at 11 and 14; C-terminal amide
notes: Synthetic truncated analogue of human GIP
Ki: 0.78 nM

YAEGTF[Ac6c]SDYSIAMDKIHQQDFVNWLLAQKGKKNDWKHNI[Ac6c]Q-OH (Synthetic analogue of human GIP) [(A6c^7, 41)hGIP(1-42)-OH]
Ki: 8.79 nM

YAEGTF[Ac6c]SDYSIAMDKIHQQDFVNWLLAQKGKKN[Orn](Myristoyl)WKHNITQ-OH (Synthetic analogue of human GIP) [[A6c^7, Orn^35(N-C(O)-(CH2)12-CH3)]hGIP(1-42)-OH]
Ki: 10.3 nM

B3: (A5c^11, His^31)hGIP(1-31)-NH2 (peptide)
peptide: YAEGTFISDYXIAMDKIHQQDFVNWLLAQKH
modifications: A5c at 11; C-terminal amide
notes: Synthetic truncated analogue of human GIP with His at position 31
Ki: 0.44 nM

YAEGTF[Ac6c]SDYSIAMDKIHQQDFVNWLLAQKGKKNDWKHNITC(Psu)-OH (Synthetic analogue of human GIP) [[A6c^7, Cys(Psu)^42]hGIP(1-42)-OH]
Ki: 30.4 nM

YAEGTF[Ac6c]SDYSIAMDKIHQQDFVNWLLAQK[Orn](Myristoyl)KKNDWKHNITQ-OH (Synthetic analogue of human GIP) [[A6c^7, Orn^31(N-C(O)-(CH2)12-CH3)]hGIP(1-42)-OH]
Ki: 18.1 nM

YAEGTF[Ac6c]SDYSIA[Nle]DKIHQQDFVNWLLAQKGKKNDWKHNI[Ac6c]Q-OH (Synthetic analogue of human GIP) [(A6c^7, 41, Nle^14)hGIP(1-42)-OH]
Ki: 26.1 nM

B4: (A5c^11)hGIP(1-30)-NH2 (peptide)
peptide: B2 peptide with X14M
modifications: A5c at 11; C-terminal amide
notes: as for B2
Ki: 0.82 nM

YAEGTFISDYSI[Aib][Nle]DKIHQQDFVNWLLAQKGKKNDWKHN[Ac5c]TQ-OH (Synthetic analogue of human GIP) [(Aib^13, Nle^14, A5c^40)hGIP(1-42)-OH]
Ki: 0.23 nM

B5: (A6c^11, 14, 41)hGIP(1-42)-OH (peptide)
peptide: YAEGTFISDYXIAXDKIHQQDFVNWLLAQKGKKNDWKHNIXQ
modifications: A6c (1-amino-1-cyclohexanecarboxylic acid) at 11, 14 and 41; C-terminal free acid
notes: Synthetic analogue of human GIP
Ki: 4.72 nM

YAEGTFISDYXIAXDKIHQQDFVNWLLAQKGKKNDWKHNXTQ (A6c at 11, 14 and 40; C-terminal free acid, Synthetic analogue of human GIP) [(A6c^11, 14, 40)hGIP(1-42)-OH]
Ki: 1.3 nM

YAEGTFISDYXIAMDKIHQQDFVNWLLAQKGKKNDWKHNIXQ (A5c (1-amino-1-cyclopentanecarboxylic acid) at 11 and 41; C-terminal free acid, Synthetic analogue of human GIP) [(A5c^11, 41)hGIP(1-42)-OH]
Ki: 0.12 nM

YAEGTFISDYSIXMDKIHQQDFVNWLLAQKGKKNDWKHNXTQ (Aib at 13; A5c at 40; C-terminal free acid, Synthetic analogue of human GIP) [(Aib^13, A5c^40)hGIP(1-42)-OH]
Ki: 5.74 nM

YAEGTFISDYXIAMDKIHQQDFVNWLLAQKGKKNDWKHNXTQ (A5c at 11 and 40; C-terminal free acid, Synthetic analogue of human GIP) [(A5c^11, 40)hGIP(1-42)-OH]
Ki: 0.62 nM

B6: (A5c^11, 41, Cys^33)hGIP(1-42)-NH2 (peptide)
peptide: B5 peptide with X14M, K33C
modifications: A5c at 11 and 41; C-terminal amide
notes: Synthetic analogue of human GIP with Cys at position 33
Ki: 1.05 nM

B7: [A5c^11,41, Cys^32(succinimide-N-20K PEG)]hGIP(1-42)-NH2 (peptide)
peptide: B5 peptide with X14M, K32C
modifications: A5c at 11 and 41; Cys(succinimide-N-20K PEG) at 32; C-terminal amide
notes: Synthetic PEGylated analogue of human GIP
Ki: 0.7 nM

B8: (A5c^11, 41, Cys^32)hGIP(1-42)-NH2 (peptide)
peptide: B5 peptide with X14M, K32C
modifications: A5c at 11 and 41; C-terminal amide
notes: Synthetic analogue of human GIP with Cys at position 32
Ki: 0.9 nM

B9: [A5c^11, Lys^43(N-C(O)-(CH2)10-CH3)]hGIP(1-43)-OH (peptide)
peptide: YAEGTFISDYXIAMDKIHQQDFVNWLLAQKGKKNDWKHNITQK
modifications: A5c at 11; Lys(N-C(O)-(CH2)10-CH3) at 43; C-terminal free acid
notes: Synthetic acylated analogue of human GIP
Ki: 0.83 nM

B10: [A5c^11, Orn^33(N-C(O)-(CH2)14-CH3), His^43]hGIP(1-43)-OH (peptide)
peptide: B9 peptide with K33X, K43H
modifications: A5c at 11; Orn(N-C(O)-(CH2)14-CH3) at 33; C-terminal free acid
notes: as for B9
Ki: 26.4 nM

B11: [A5c^11, Orn^33(N-C(O)-(CH2)10-CH3), His^43]hGIP(1-43)-OH (peptide)
peptide: B9 peptide with K33X, K43H
modifications: A5c at 11; Orn(N-C(O)-(CH2)10-CH3) at 33; C-terminal free acid
notes: Synthetic acylated analogue of human GIP with an added His at position 43
Ki: 9.1 nM

B12: [A5c^11, Orn^32(N-C(O)-(CH2)14-CH3), His^43]hGIP(1-43)-OH (peptide)
peptide: B9 peptide with K32X, K43H
modifications: A5c at 11; Orn(N-C(O)-(CH2)14-CH3) at 32; C-terminal free acid
notes: as for B9
Ki: 41.6 nM

B13: (A5c^11, 41, Cys^43)hGIP(1-43)-NH2 (peptide)
peptide: B9 peptide with T41X, K43C
modifications: A5c at 11 and 41; C-terminal amide
notes: Synthetic analogue of human GIP with an added Cys at position 43
Ki: 0.51 nM

B14: [A5c^11,41, Cys^43(succinimide-N-20K PEG)]hGIP(1-43)-NH2 (peptide)
peptide: B9 peptide with T41X, K43C
modifications: A5c at 11 and 41; Cys(succinimide-N-20K PEG) at 43; C-terminal amide
notes: as for B7
Ki: 0.7 nM

B15: (A5c^11, Nle^14, His^43)hGIP(1-43)-OH (peptide)
peptide: B9 peptide with M14X, K43H
modifications: A5c at 11; Nle at 14; C-terminal free acid
notes: Synthetic analogue of human GIP with an added His at position 43
Ki: 0.72 nM

B16: [A5c^11, Orn^32(N-C(O)-(CH2)10-CH3), His^43]hGIP(1-43)-OH (peptide)
peptide: B9 peptide with K32X, K43H
modifications: A5c at 11; Orn(N-C(O)-(CH2)10-CH3) at 32; C-terminal free acid
notes: as for B11
Ki: 5.3 nM

B17: (A5c^11, 14, His^43)hGIP(1-43)-OH (peptide)
peptide: B9 peptide with M14X, K43H
modifications: A5c at 11 and 14; C-terminal free acid
notes: as for B15
Ki: 0.59 nM

B18: [A5c^11, Lys^43(N-C(O)-(CH2)14-CH3)]hGIP(1-43)-OH (peptide)
peptide: B9 peptide
modifications: A5c at 11; Lys(N-C(O)-(CH2)14-CH3) at 43; C-terminal free acid
notes: as for B9
Ki: 1.25 nM

B19: [A5c^11,41, Cys^43(succinimide-N-30K PEG)]hGIP(1-43)-NH2 (peptide)
peptide: B9 peptide with T41X, K43C
modifications: A5c at 11 and 41; Cys(succinimide-N-30K PEG) at 43; C-terminal amide
notes: as for B7
Ki: 0.69 nM

B20: (Aib^13, Asp^43)hGIP(1-43)-NH2 (peptide)
peptide: B9 peptide with X11S, A13X, K43D
modifications: Aib (alpha-aminoisobutyric acid) at 13; C-terminal amide
notes: Synthetic analogue of human GIP with an added Asp at position 43
Ki: 0.6 nM

YAEGTFISDYXIAMDKIHQQDFVNWLLAQKGKKNDWKHNITQX (A5c at 11; Ado (12-aminododecanoic acid) at 43; C-terminal free acid, Synthetic analogue of human GIP) [(A5c^11, Ado^43)hGIP(1-43)-OH]
Ki: 31.6 nM

B21: (A5c^11, Thr^43)hGIP(1-43)-OH (peptide)
peptide: B9 peptide with K43T
modifications: A5c at 11; C-terminal free acid
notes: Synthetic analogue of human GIP with an added Thr at position 43
Ki: 3.13 nM

B22: (A5c^11, His^43)hGIP(1-43)-OH (peptide)
peptide: B9 peptide with K43H
modifications: A5c at 11; C-terminal free acid
notes: as for B15
Ki: 0.54 nM

B23: (A5c^11, Ala^43)hGIP(1-43)-OH (peptide)
peptide: B9 peptide with K43A
modifications: A5c at 11; C-terminal free acid
notes: Synthetic analogue of human GIP with an added Ala at position 43
Ki: 3.43 nM

B24: (Aib^13, Trp^43)hGIP(1-43)-OH (peptide)
peptide: B9 peptide with X11S, A13X, K43W
modifications: Aib at 13; C-terminal free acid
notes: Synthetic analogue of human GIP with an added Trp at position 43
Ki: 2.76 nM

B25: (A5c^11, Asn^43)hGIP(1-43)-OH (peptide)
peptide: B9 peptide with K43N
modifications: A5c at 11; C-terminal free acid
notes: Synthetic analogue of human GIP with an added Asn at position 43
Ki: 0.21 nM
